# According to a protein production outcome set (Wang et al. 2014):
# Experiment: label from the status in PepcDB records
# 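Also: failed if final PepcDB status was selected cloned or expressed and not failed if soluble or beyond.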
row,Sequence,protein production
1,MVLWHKKDRKLGKHLRSVLSVSNNSPLSPAAFSGFKAVIKGIEKERIAGVGKTEGIKNEKTAGVGKTEGIEKERIAGVGKTEGIENTEGTEKAGEIKNNEKIKKAEETENILEIEKTFRNKKKQGVSKGDVDKENSTAFLYNTEAKKLTFHGNIYEILPLFLNVRNLYASLPFFEELQACAERLEKDPQDATALFQKAVLMYKARRFETALQLTAKVLKIIPDDHRVWYNRGVILSEMGRLEEAIAAYDRTIELEPAFEIAWDNKGVVLARLGRFEEALEIYDKILQKFPEYAEAWAGKGSIFLALDREEEALEAYSSALRIRPEYLEALTSTGSLLSRLGRYEESLKIYDKALQLVPKDPRLLAAKGFVLSEMGKQEEALENCNRALELQPGFVPALEIKVRILSEIGRQKNKTSQ,failed
2,MDHQFGYGVEVTGLSPSVTHNDLIDFFSFSGTIQDIDIVRSGEQACTAYVMFKDSYSQETAVLLTGATILDQRVCITRWGQHHEEFDFWNATSRGFEDESDSQHYAQRSEFNAGEAVTKAQEVVKIMLATGFVLGKDALSKAKAFDESHGVSAAAVARVSQLEQRIGLTDKIFTGLEAVRMTDQRYHVSDTAKSAVFATGRTAAAAATSVVNSSYFSSGALWLSGALERAAKAASDLGTRGSRQ,failed
3,MGPRRLLLVAACFSLCGPLLSARTRARRPESKATNATLDPRSFLLRNPNDKYEPFWEDEEKNESGLTEYRLVSINKSSPLQKQLPAFISEDASGYLTSSWLTLFVPSVYTGVFVVSLPLNIMAIVVFILKMKVKKPAVVYMLHLATADVLFVSVLPFKISYYFSGSDWQFGSELCRFVTAAFYCNMYASILLMTVISIDRFLAVVYPMQSLSWRTLGRASFTCLAIWALAIAGVVPLLLKEQTIQVPGLNITTCHDVLNETLLEGYYAYYFSAFSAVFFFVPLIISTVCYVSIIRCLSSSAVANRSKKSRALFLSAAVFCIFIICFGPTNVLLIAHYSFLSHTSTTEAAYFAYLLCVCVSSISCCIDPLIYYYASSECQRYVYSILCCKESSDPSSYNSSGQLMASKMDTCSSNLNNSIYKKLLT,failed
4,MLQRTLSSIQIIGGVTQALFILSICLASINPPTEFTMRRTMAMSMRKYSSHSTPRMARIPTTFVVIVLRPTILSGSVGPVITLYIAIKAVPRSTQTPATKTFS,failed
5,MAVLYAGRPVQKCERSRLMFNIDQPDSAPDNEDHDGDVVMHGQGSFFGRRKGHKLRAHQADLIENLLPHLSLQIDSPAPEPLTTLFDPPVEHMRLEIGFGGGEHLIAEALAHPDTGFIGAEPYVNGMAKILARIEAENIRNIRLFAGDASELLAWVPAGSLARIDLIHPDPWPKRRHWKRRFVQDATVAAMARALTPHGEFRFVCDIDGYTAWTLAHLLRAPCFDWLAQRADDWRKPWPNYTMTRYGRKAEREGRRANYLRFERL,failed
6,MSTTGKNTTAAATDTVTERPPVFSVDGLWKVFGPKAARVPADPDLTALSPAELRSRTGCTAAVADVSFDVRKGEVFVVMGLSGSGKSTLVRCLTRLIEPTAGSIVIDGEDVRAMDRSRLRELRRHRAAMVFQHFGLLPHRTVLDNVAYGLEVQGMGRAERRERAAAIVAKVGLEGLEQRRPGQLSGGQRQRVGLARALAVDPEVLLFDEPFSALDPLIRRDMQEEVVRLHREEGRTMVFITHDLQEALKLGDRIALMRDGRVVQLGTPEEIVGSPADDYVREFVRDVPREQVLTVRTAMRPAANADEAGTGPAIRPEATVSEAIEAVARAGSAARVMSDGRCLGVVDAADLLSVVAGTAAAGSRAAGAARVGAAATGERREPTDPRPATTEEPV,failed
7,MPQSAPPNTRQAVLWNDVSGKAWVEMQPILDEILAPFERLVVDAGYPREGGNVLDIGCGAGATTLAMARRVGNDGNCVGLDISQPLVALATERTKLGEVANASFEVGDAQTYAFESGHFDAAISRFGVMFFDDPMAAFTNIRKAVRRRGKLAFVAWRSPLENDFMTTAVRAAAPFLPPAPAPDPDAPGQFAFADGAKVRRILEASGWASIEVEQADVPCRIAQRDLMAYATRLGPLGAALREVDRATAERITTVLPAAFAPFVDDGEARFNAACWLVTALA,failed
8,MKRKIIVACGGAVATSTMAAEEIKELCQSHNIPVELIQCRVNEIETYMDGVHLICTTARVDRSFGDIPLVHGMPFVSGVGIEALQNKILTILQG,not failed
9,MTTPLSPEATPPHGDLASGNVTRRILGIVVFNFIAYLSVGLPIAVVPGFVHGDLGYSAVLAGLAVSIQYLATLLSRPWAGSLCDMKGPKRSVLTGLLLCAGSGLLMLVAAQFAGNDWLALGWLLSSRLMLGAGESLVTTGTIAWGIGSVGARHTAKVISWNGVTTYGALAVGAPVGVLLAGHGGLTAIGIVTSVIAGASWLLARRQAAVPILKGERLPFRSVFRAMSPFGLCLGLGSVGFGAITAFITLYYAGHGWDHAALALTALGTCFVLTRLIMADSITRFGGYPVALVSFAVEAAGLAMLWLAQAPWQALAGAAVVGFGFSLVFPSLGIEAVKRVPATNRGSALGAYALFFDFSLGLTGPVAGLITKHAGYPAVYLFAALAAVLALVLSQVLAARYRDRLAPAT,failed
10,MSVGTSSAPGARQVPRPLAPRTSGDPADLGIDPDQLPDGLVVADEHGRVVCFNAAAVRITATPAAEALGQLLESALPLEDLEGRRWWQLTDPYGGLAIRVRQPERNLLLPGGREVLVTARYVRAERLGPVHRVVVTLRDTEARRRTERSHAELIATVAHELRSPLTSVKGFTATLLAKWERFTDDQKRLMLETVDADADRVTRLIAELLDISRIDSGRLEVRRQPVDIGAAVGRHIQAYVASGLEADRFLLRLAQPLPDLWADPDKVDQVLSNLLENAVRHGEGTVTIDVTPTASPREGEDTGTSVTVSDEGAGIPEESMNRVFTRFWRGSKRGGTGLGLYIVKGIVEAHGGTITVGRAPGGGAEFRFTLPVAAPAYLT,failed
11,MAELNFKAIEEKWQKRWLEAKIFEPNIRDKPKEKKFYITVAFPYLSGHLHVGHARTYTIPDVIARFKRMQGYNVLFPMAWHITGSPIVGIAERIKNRDPKTIWIYRDVYKVPEEILWTFEDPINIVKYFMKAAKETFIRAGFSVDWSREFYTTSLFPPFSKFIEWQFWKLKEKGYIVKGAHRVRWDPVVGTPLGDHDLMEGEDVPILDYIIIKFELRENGEVIYLPAATLRPETVYGVTNMWVNPNATYVKAKVRRKDKEETWIVSKEAAYKLSFQDREIEVIEEFKGEKLIGKYVRNPVSGDEVIILPAEFVDPDNATGVVMSVPAHAPFDHVALEDLKRETEILEKYDIDPRIVENITYISLIKLEGYGDFPAVEEVNKLGIKSQKDKEKLEQATKTIYKAEYHKGIFKVPPYEGKPVQEVKEAIAKEMLEKGIAEIMYEFAEKNVISRFGNRAVIKIIHDQWFIDYGNPEWKEKARKALERMKILPETRRAQFEAIIDWLDKKACARKIGLGTPLPWDPEWVIESLSDSTIYMAYYTISRHINKLRQEGKLDPEKLTPEFFDYIFLEEFSEDKEKELEKKTGIPAEIIHEMKEEFEYWYPLDWRCSGKDLIPNHLTFFIFNHVAIFREEHWPKGIAVNGFGTLEGQKMSKSKGNVLNFIDAIEENGADVVRLYIMSLAEHDSDFDWRRKEVGKLRKQIERFYELISQFAEYEVKGNVELKDIDRWMLHRLNKAIKETTNALEEFRTRTAVQWAFYSIMNDLRWYLRRTEGRDDEAKRYVLRTLADVWVRLMAPFTPHICEELWEKLGGEGFVSLAKWPEPVEEWWNETIEAEEEFIRSVMEDIKEIIEVAKIENAKRAYIYTAEDWKWKVAEVVSEKRDFKSSMEELMKDSEIRKHGKEVAKIVQKLIKERTFDVKRINEEKALREAKEFMEKELGIEIIINPTEDKGGKKKQAMPLKPAIFIE,not failed
12,MLFIAFAPFGAFALEANSKNDGYSLDDIKYYKIFENEDIPKIMYALRQGDFEIIAELKNEWEIEEEDVSFEYTTSKNPLGELIRDNLYELGQKYEVFEDESDFVSKMNVWATAFTKSMMKKSSEQKDKLIVQTVNALDNLDETLNLFSERLREWYSLYFPEMDNIVKKHDIYVSLVSEYGDREEYTRTKLKKTMPSNVARTISLAAKESMGADVSEFDLKIMKNLADEIKSMYEYRESLQEYLETSMNEIAPNLTKVAGASLGARLISLAGGIERLLRLPASTIQVIGAEKALFAHLRERALPPKHGVIFQHPLIQGSPWWIHGKIARAISCKISIAIRADAFGNDISDMLIEDMNKKVAEIKEKFPEPTRKRRPRPDTRSFGNKGGQDRDRRSQGDRKPSGNRGDSKKGGKPFGKKPAGKDDRRDNRKGDRKPFGGKPKNSGNQPPKERSGEKRRDSTKKVKAERKVIGKTSSQNLEHHHHHH,not failed
13,MSQSSKRKNDSVVETFKDIIPLTFGEEIGNAASHGAAALLTLFILPYAAVHSFNNGGTLESISVSVYVISIFMMFISSTIYHSMQNNTSHKYILRIIDHSMIYVAISGTYTPVLLSVVGGWLGWLVTILLWGTTLWGILYKSIATKVNHRLSLIVYLVMGWVGIIFLPIIIMRTSWWFIFFIFLGGLSYTIGAWFYAQKNKPYFHMIWHIFIVLASFLHMIGIFYFM,failed
14,MHEQLSPRDQELEARLVELETRLSFQEQALTELSEALADARLTGARNAELIRHLLEDLGKVRSTLFADAADEPPPPHY,not failed
15,YRQSQSRAARLRLLVDTGQELIQLPPEAMRKCVLQRACAFVAMDHGLLLEWGADNGVQTTARHGSKERLSTLETTADPLAIGPQWLERPGTHLPCVLLLPLRGADEGSFGTLVLANSVAISAPDGEDIESLQLLATLLAAHLENNRLLEALVARDRT,not failed
16,MERNRRRNADNNTVVDQGGVFFDGCDTDEAFGPSSRDVPFQHDSVKSKPNLYGGG,not failed
17,MKETTKKIVSKRLTKVVALVLMCVICTSGVITVTALSRDVTVLDGDKMYGLTTLNANPDAVLDRLGIEVSPEDSIEFDEAAAKITIKRAFDVTVEVDGKAKTVTMTEGTVADALEASKVDLKEGDQVVPFAATSLVPDMEIKVARGVEVTVEADGKSVKVKVPVTATVEAAVAAADFTVGKDDVLSAEKTDTVSAGMTIKLDRVSYRETETTQEIPYESTQEETGELDLGDTQVKTAGENGARTIVTREKLVNGQVVETEEISSTVVKEPVNEVLLVGTREVETAPSYGAASTSGGVLVDHDGNQIAYTAVYTGSATAYTAPAGSFTATGRPAQYGNVAVNPDLIPYGSRLYICSPDGSYVYGYAVAADTGGALMSGSALVDVYFDTLSECYGFGRRTLSVYILA,failed
18,VAKMRFIDIGANLLDEMYTGQYNDKPYHPPDLSAVLERAWAAGLEKLMITAGSLKEARAALELAKTDERLYCTVGCHPTRCKEFEDHPGGPEAYLQELLEVLKEGQALGKVVAVGECGLVATDYERLHFCDADTQKKYFEAQFRLAKESGLPMFLHLRAAADDFLDITGRHLGDFPRGGVVHSFDGTAEEAARVLAVPQLAIGINGCSLKTDDNLAVVGGLPLERIMLETDCPWCEIRPTHAGRKHVSAEALAGVTGAKDRKKFMPGCQVKSRNEPANIRQVLEVVAGVKGRTDLEAVADVIFGNTERMFFPTA,not failed
19,MGLTDIFLNLLLFVYPAVFIIYQIILYEISARKQINQEALKYSNLPVLSIIVPIKNEEISVIQGLLDNLSNLIWDKKKLEIIIVSDDNEDYFTKIINTVKVPKDLTVYFYRREKKLGYKSGALQYGFEKATGDLILTIDVDSRLPPNALINAYEKMQSNTCDAIVFQWNGYSSNQYSTLAKGMVVSTLFASKALFEGKEKLKLKIYPVGSGTMFSREALRVVNGWDYRLVQDDLEIGTRLIYNGKNVCASGIPIYVEVPDNFYSFYVQQTRWAMGSAEVLRNRLKYIIKSKISFTQRMDLIIYLLQYTPVIVTFFISTLLSLMLPFRIGHDPLNSPALLFWLVSLGLYASLLLSLALKLGLNLKDSLMGIGRLTAFTVSISPFIVFNFFKGLLKSGNTYVITPKGTVKKTNKLLRIIAIIGVFGLLYLLSSILYIYEGYYVTGIWLLYYSSAYLYTMLLYYKEL,failed
20,MKKWLLAAGLGLALATSAQAADKIAIVNMGSLFQQVAQKTGVSNTLENEFKGRASELQRMETDLQAKMKKLQSMKAGSDRTKLEKDVMAQRQTFAQKAQAFEQDRARRSNEERGKLVTRIQTAVKSVANSQDIDLVVDANAVAYNSSDVKDITADVLKQVK,not failed
